# Measurements taken from article PMC4434323.
# Assays:
# [1] = biological target: klf-3 (F54H5.4) (Caenorhabditis elegans) (UniProt Q65ZG6)
# [2] = biological target: T1, ceh-52 (C07E3.5) (Caenorhabditis elegans) (UniProt Q17788)
# T1 sequence: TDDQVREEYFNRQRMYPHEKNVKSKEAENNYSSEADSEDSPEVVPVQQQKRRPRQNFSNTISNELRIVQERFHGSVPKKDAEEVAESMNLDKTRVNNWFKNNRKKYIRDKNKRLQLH
# [3] = tested on: T2, ztf-14 (M163.2) (Caenorhabditis elegans)
# T2 sequence: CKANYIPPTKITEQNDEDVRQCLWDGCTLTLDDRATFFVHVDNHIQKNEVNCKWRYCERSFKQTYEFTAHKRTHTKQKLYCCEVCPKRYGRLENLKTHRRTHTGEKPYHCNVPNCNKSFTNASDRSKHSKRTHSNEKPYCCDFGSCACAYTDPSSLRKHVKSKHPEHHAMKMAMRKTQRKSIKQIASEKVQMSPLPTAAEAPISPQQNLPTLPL
# [4] = biological target: T3, lsl-1 (F52F12.4) (Caenorhabditis elegans) (UniProt O02273)
# T3 sequence: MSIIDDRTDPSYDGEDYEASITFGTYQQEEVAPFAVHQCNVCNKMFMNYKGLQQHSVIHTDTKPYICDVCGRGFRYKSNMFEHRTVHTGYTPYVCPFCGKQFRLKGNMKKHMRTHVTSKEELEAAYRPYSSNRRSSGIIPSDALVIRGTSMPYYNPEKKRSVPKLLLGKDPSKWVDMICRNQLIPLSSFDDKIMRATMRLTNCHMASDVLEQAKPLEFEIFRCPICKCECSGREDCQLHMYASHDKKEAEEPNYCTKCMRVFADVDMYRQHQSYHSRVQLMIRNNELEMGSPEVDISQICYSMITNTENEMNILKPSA
# [5] = tested on: T4, syd-9 (ZK867.1) (Caenorhabditis elegans)
# T4 sequence: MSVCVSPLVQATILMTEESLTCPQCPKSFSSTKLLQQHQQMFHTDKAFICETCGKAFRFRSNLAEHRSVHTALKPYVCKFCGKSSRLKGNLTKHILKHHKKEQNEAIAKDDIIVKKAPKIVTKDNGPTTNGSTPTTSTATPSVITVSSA
# [6] = biological target: T5, Y75B8A.6 (Y75B8A.6) (Caenorhabditis elegans) (UniProt A0A168H365)
# T5 sequence: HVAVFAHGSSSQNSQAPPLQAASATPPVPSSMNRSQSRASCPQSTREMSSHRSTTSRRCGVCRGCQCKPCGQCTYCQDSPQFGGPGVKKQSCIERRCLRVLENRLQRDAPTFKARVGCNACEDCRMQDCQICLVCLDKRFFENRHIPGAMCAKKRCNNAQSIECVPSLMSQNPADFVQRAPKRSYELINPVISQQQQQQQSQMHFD
# [7] = biological target: T6, Y44A6D.3 (Y44A6D.3) (Caenorhabditis elegans) (UniProt Q9XXE0)
# T6 sequence: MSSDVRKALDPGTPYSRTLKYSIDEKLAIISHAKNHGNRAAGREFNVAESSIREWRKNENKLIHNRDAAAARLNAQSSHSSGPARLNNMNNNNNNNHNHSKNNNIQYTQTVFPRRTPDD
# [8] = biological target: T7, efl-2 (Y48C3A.17) (Caenorhabditis elegans) (UniProt A5HWA8)
# T7 sequence: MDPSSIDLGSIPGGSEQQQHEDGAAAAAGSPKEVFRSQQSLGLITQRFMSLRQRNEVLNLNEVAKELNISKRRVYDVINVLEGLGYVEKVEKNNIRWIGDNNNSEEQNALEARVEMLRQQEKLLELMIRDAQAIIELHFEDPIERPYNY
# [9] = biological target: T8, tbx-43 (Y46E12A.4) (Caenorhabditis elegans) (UniProt Q1T6W8)
# T8 sequence: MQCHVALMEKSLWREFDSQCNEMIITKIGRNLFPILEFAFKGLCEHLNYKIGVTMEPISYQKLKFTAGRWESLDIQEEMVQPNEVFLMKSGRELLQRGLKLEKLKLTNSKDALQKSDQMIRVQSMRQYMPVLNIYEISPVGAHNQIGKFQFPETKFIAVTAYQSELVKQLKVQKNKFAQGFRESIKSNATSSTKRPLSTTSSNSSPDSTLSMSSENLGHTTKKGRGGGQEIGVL
# [10] = biological target: T9, tbx-38 (C24H11.3) (Caenorhabditis elegans) (UniProt Q9XVD5)
# T9 sequence: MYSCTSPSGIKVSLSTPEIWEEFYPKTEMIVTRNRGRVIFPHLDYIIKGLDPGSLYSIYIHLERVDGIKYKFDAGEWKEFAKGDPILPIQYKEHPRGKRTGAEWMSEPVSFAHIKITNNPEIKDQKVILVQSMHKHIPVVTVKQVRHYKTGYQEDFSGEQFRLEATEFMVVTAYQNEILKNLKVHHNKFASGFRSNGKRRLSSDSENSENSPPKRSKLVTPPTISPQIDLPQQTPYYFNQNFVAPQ
# klf-3 (F54H5.4) (Caenorhabditis elegans), sequence (Q65ZG6 180-315): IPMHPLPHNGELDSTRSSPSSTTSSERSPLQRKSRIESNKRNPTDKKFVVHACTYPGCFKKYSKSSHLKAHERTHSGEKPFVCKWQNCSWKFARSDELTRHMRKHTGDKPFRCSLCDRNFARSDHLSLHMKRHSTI
sequence,measurement,setting,value
AACGCCCA (double strand) [8-mer AACGCCCA],binding signal (PBM E-score (-0.5 to 0.5)),[1],0.483
AAGAGTTA (double strand) [8-mer AAGAGTTA],binding signal (PBM E-score (-0.5 to 0.5)),[2],0.463
AAGGGCGT (double strand) [8-mer AAGGGCGT],binding signal (PBM E-score (-0.5 to 0.5)),[1],0.487
ACCACCCA (double strand) [8-mer ACCACCCA],binding signal (PBM E-score (-0.5 to 0.5)),[3],0.469
ACCACCCT (double strand) [8-mer ACCACCCT],binding signal (PBM E-score (-0.5 to 0.5)),[3],0.463
ACGCCCAT (double strand) [8-mer ACGCCCAT],binding signal (PBM E-score (-0.5 to 0.5)),[1],0.49
AGACCACC (double strand) [8-mer AGACCACC],binding signal (PBM E-score (-0.5 to 0.5)),[3],0.494
AGAGTTAA (double strand) [8-mer AGAGTTAA],binding signal (PBM E-score (-0.5 to 0.5)),[2],0.452
AGAGTTAT (double strand) [8-mer AGAGTTAT],binding signal (PBM E-score (-0.5 to 0.5)),[2],0.481
AGGCCACC (double strand) [8-mer AGGCCACC],binding signal (PBM E-score (-0.5 to 0.5)),[3],0.453
AGGGCGTA (double strand) [8-mer AGGGCGTA],binding signal (PBM E-score (-0.5 to 0.5)),[1],0.484
AGGGCGTG (double strand) [8-mer AGGGCGTG],binding signal (PBM E-score (-0.5 to 0.5)),[1],0.491
AGGGTAAA (double strand) [8-mer AGGGTAAA],binding signal (PBM E-score (-0.5 to 0.5)),[3],0.46
AGGTGGTC (double strand) [8-mer AGGTGGTC],binding signal (PBM E-score (-0.5 to 0.5)),[3],0.475
AGTGTTAT (double strand) [8-mer AGTGTTAT],binding signal (PBM E-score (-0.5 to 0.5)),[2],0.454
ATAACACC (double strand) [8-mer ATAACACC],binding signal (PBM E-score (-0.5 to 0.5)),[2],0.457
ATAACTCC (double strand) [8-mer ATAACTCC],binding signal (PBM E-score (-0.5 to 0.5)),[2],0.482
ATACAGTA (double strand) [8-mer ATACAGTA],binding signal (PBM E-score (-0.5 to 0.5)),[4],0.491
same,binding signal (PBM E-score (-0.5 to 0.5)),[5],0.492
ATACGCCC (double strand) [8-mer ATACGCCC],binding signal (PBM E-score (-0.5 to 0.5)),[1],0.48
ATACTGTA (double strand) [8-mer ATACTGTA],binding signal (PBM E-score (-0.5 to 0.5)),[4],0.494
same,binding signal (PBM E-score (-0.5 to 0.5)),[5],0.493
ATGGGTGG (double strand) [8-mer ATGGGTGG],binding signal (PBM E-score (-0.5 to 0.5)),[3],0.452
CAACGCCC (double strand) [8-mer CAACGCCC],binding signal (PBM E-score (-0.5 to 0.5)),[1],0.482
CACGCCCA (double strand) [8-mer CACGCCCA],binding signal (PBM E-score (-0.5 to 0.5)),[1],0.49
CCACACCC (double strand) [8-mer CCACACCC],binding signal (PBM E-score (-0.5 to 0.5)),[1],0.486
CCACGCCC (double strand) [8-mer CCACGCCC],binding signal (PBM E-score (-0.5 to 0.5)),[1],0.494
CCCCGCCC (double strand) [8-mer CCCCGCCC],binding signal (PBM E-score (-0.5 to 0.5)),[1],0.489
CCCGCCCA (double strand) [8-mer CCCGCCCA],binding signal (PBM E-score (-0.5 to 0.5)),[1],0.485
CCCGCGGG (double strand) [8-mer CCCGCGGG],binding signal (PBM E-score (-0.5 to 0.5)),[6],0.451
CCGCGCGC (double strand) [8-mer CCGCGCGC],binding signal (PBM E-score (-0.5 to 0.5)),[6],0.462
CCGCGCGG (double strand) [8-mer CCGCGCGG],binding signal (PBM E-score (-0.5 to 0.5)),[7],0.495
same,binding signal (PBM E-score (-0.5 to 0.5)),[6],0.465
CCGCGGAA (double strand) [8-mer CCGCGGAA],binding signal (PBM E-score (-0.5 to 0.5)),[6],0.468
CCGCGGGA (double strand) [8-mer CCGCGGGA],binding signal (PBM E-score (-0.5 to 0.5)),[6],0.458
CGCGCGCG (double strand) [8-mer CGCGCGCG],binding signal (PBM E-score (-0.5 to 0.5)),[8],0.494
same,binding signal (PBM E-score (-0.5 to 0.5)),[6],0.476
CGCGCGGC (double strand) [8-mer CGCGCGGC],binding signal (PBM E-score (-0.5 to 0.5)),[6],0.451
CGCGGAAA (double strand) [8-mer CGCGGAAA],binding signal (PBM E-score (-0.5 to 0.5)),[6],0.457
CGCGGAAC (double strand) [8-mer CGCGGAAC],binding signal (PBM E-score (-0.5 to 0.5)),[6],0.454
CGCGGCGC (double strand) [8-mer CGCGGCGC],binding signal (PBM E-score (-0.5 to 0.5)),[6],0.461
CTACAGTA (double strand) [8-mer CTACAGTA],binding signal (PBM E-score (-0.5 to 0.5)),[4],0.498
same,binding signal (PBM E-score (-0.5 to 0.5)),[5],0.49
CTACGCCC (double strand) [8-mer CTACGCCC],binding signal (PBM E-score (-0.5 to 0.5)),[1],0.48
GACCACAC (double strand) [8-mer GACCACAC],binding signal (PBM E-score (-0.5 to 0.5)),[3],0.488
GACCACCA (double strand) [8-mer GACCACCA],binding signal (PBM E-score (-0.5 to 0.5)),[3],0.454
GACCACCC (double strand) [8-mer GACCACCC],binding signal (PBM E-score (-0.5 to 0.5)),[3],0.499
GACCCCCC (double strand) [8-mer GACCCCCC],binding signal (PBM E-score (-0.5 to 0.5)),[3],0.478
GACCTCCC (double strand) [8-mer GACCTCCC],binding signal (PBM E-score (-0.5 to 0.5)),[3],0.479
GAGTTATA (double strand) [8-mer GAGTTATA],binding signal (PBM E-score (-0.5 to 0.5)),[2],0.465
GCGCGCAA (double strand) [8-mer GCGCGCAA],binding signal (PBM E-score (-0.5 to 0.5)),[6],0.458
GCGCGCGC (double strand) [8-mer GCGCGCGC],binding signal (PBM E-score (-0.5 to 0.5)),[8],0.495
same,binding signal (PBM E-score (-0.5 to 0.5)),[6],0.465
GGACCACC (double strand) [8-mer GGACCACC],binding signal (PBM E-score (-0.5 to 0.5)),[3],0.495
GGAGTTAA (double strand) [8-mer GGAGTTAA],binding signal (PBM E-score (-0.5 to 0.5)),[2],0.464
GGCCACCC (double strand) [8-mer GGCCACCC],binding signal (PBM E-score (-0.5 to 0.5)),[3],0.494
GGGAGTTA (double strand) [8-mer GGGAGTTA],binding signal (PBM E-score (-0.5 to 0.5)),[2],0.459
GGGGTTAA (double strand) [8-mer GGGGTTAA],binding signal (PBM E-score (-0.5 to 0.5)),[2],0.454
GGTGTTAA (double strand) [8-mer GGTGTTAA],binding signal (PBM E-score (-0.5 to 0.5)),[9],0.492
same,binding signal (PBM E-score (-0.5 to 0.5)),[10],0.488
same,binding signal (PBM E-score (-0.5 to 0.5)),[2],0.459
GTACAGTA (double strand) [8-mer GTACAGTA],binding signal (PBM E-score (-0.5 to 0.5)),[4],0.495
same,binding signal (PBM E-score (-0.5 to 0.5)),[5],0.495
GTACGGTA (double strand) [8-mer GTACGGTA],binding signal (PBM E-score (-0.5 to 0.5)),[4],0.494
same,binding signal (PBM E-score (-0.5 to 0.5)),[5],0.492
GTACTGTA (double strand) [8-mer GTACTGTA],binding signal (PBM E-score (-0.5 to 0.5)),[4],0.497
same,binding signal (PBM E-score (-0.5 to 0.5)),[5],0.496
TAACTCCA (double strand) [8-mer TAACTCCA],binding signal (PBM E-score (-0.5 to 0.5)),[2],0.475
TAACTCTA (double strand) [8-mer TAACTCTA],binding signal (PBM E-score (-0.5 to 0.5)),[2],0.459
TACAGTAA (double strand) [8-mer TACAGTAA],binding signal (PBM E-score (-0.5 to 0.5)),[4],0.495
same,binding signal (PBM E-score (-0.5 to 0.5)),[5],0.494
TACGCCCA (double strand) [8-mer TACGCCCA],binding signal (PBM E-score (-0.5 to 0.5)),[1],0.486
TACTGTAA (double strand) [8-mer TACTGTAA],binding signal (PBM E-score (-0.5 to 0.5)),[4],0.49
same,binding signal (PBM E-score (-0.5 to 0.5)),[5],0.494
TCCGCGGA (double strand) [8-mer TCCGCGGA],binding signal (PBM E-score (-0.5 to 0.5)),[6],0.471
